The values that follow come from article PMC9756111, “Stabilization of DNA fork junctions by Smc5/6 complexes revealed by single-molecule imaging”.

In data set [1] the target is Smc5/6 holocomplex (budding yeast) (UniProt Q12749). The data set can be described thus: single-molecule dual-colour Qdot co-detection (TIRF, DNA curtains); as a1, but buffer exchanged to 250 mM NaCl: Smc5/6 diffusing freely on double-tethered dsDNA (after equilibration on DNA); cluster size by statistical inference, assuming no unlabelled complexes (lower limit).
For data set [2] the target is unchanged. The data set can be described thus: single-molecule dual-colour Qdot co-detection (TIRF, DNA curtains); Smc5/6 labelled with equal amounts of Qdot605 and Qdot705 anti-HA on the same epitope in 50 mM NaCl-Buffer R; puncta counted as they first appear on double-tethered dsDNA curtains (oligomers in solution), and binding at sites of previously bound Smc5/6; cluster size by statistical inference, assuming no unlabelled complexes (lower limit).

For data set [3], the target named is T1, Smc5/6 holocomplex (Saccharomyces cerevisiae (W303 …, UniProt Q08204;Q12749;Q07913;P38632;Q05541;P43124;Q03718;P40026 …)). As to the kind of experiment: single-molecule capture on DNA curtain (TIRF); Smc5/6 preloaded on lambda dsDNA; 16 nM oligo; 1 mM ATP; mean about 4.0 oligos per punctum; Buffer R (composition not in material); dsDNA binding in 25 mM NaCl + 25 mM KCl, capture in 50 mM NaCl + 1 mM ATP; other steps 50-250 mM NaCl; pH and temperature not given in material. The following applies: protein: recombinant; tags: Smc6-3xStrepII; Nse4-His-3HA (Qdot anti-HA label); copies: 1;1;1;1;1;1;1;1; label: Alexa594; single stranded.

The target in data set [4] is T1, Smc5/6 holocomplex. The data set can be described thus: single-molecule capture on DNA curtain (TIRF); Smc5/6 preloaded on lambda dsDNA; 1 mM ATP; mean about 3.2 per punctum; Buffer R (composition not in material); dsDNA binding in 25 mM NaCl + 25 mM KCl, capture in 50 mM NaCl + 1 mM ATP; other steps 50-250 mM NaCl; pH and temperature not given in material. The following applies: protein: recombinant; tags: Smc6-3xStrepII; Nse4-His-3HA (Qdot anti-HA label); copies: 1;1;1;1;1;1;1;1; label: Alexa594; 3' overhang 9 nt on strand 2.

In data set [1], “Smc5/6 holocomplex (from UniProt Q12749 1-1114; Q08204 1-1093; Q07913 1-336; P38632 1-267; Q05541 1-303; P43124 1-402; Q03718 1-556)” displayed a N, mean cluster size with a truncated Poissonian model (Smc5/6 per punctum) of 3 to 4; a fraction of puncta with both colours of 67%; a stoichiometry N (Smc5/6 per punctum) of 2 to 3. In addition, in data set [2], the N, mean cluster size with a truncated Poissonian model (Smc5/6 per punctum) was in the range of 2 to 3; the fraction of binding events from solution with both colours stood at 39%; the fraction of complexes that oligomerized on DNA (bound to previously bound Smc5/6) was 10%; the stoichiometry N (Smc5/6 complexes per punctum) was determined as 2.

B1: capture01 ssDNA-Alexa594 (ssDNA)
DNA: ATATATCTGACGCGTGCCTGGAGACTGGGGAGTAATCCTCTTGGCGGTTAAA
modifications: Alexa594 between ...GCGGTT and AAA
Take B1: in the data set with Smc5/6 holocomplex [3], the binding result is given as “binds”.

B2: capture01/capture02 dsDNA-Alexa594 (dsDNA)
DNA 1: ATATATCTGACGCGTGCCTGGAGACTGGGGAGTAATCCTCTTGGCGGTTAAA
DNA 2: TTTAACCGCCAAGAGGATTACTCCCCAGTCTCCAGGCACGCGTCAGATATATACATCCTGT
modifications: Alexa594 between ...GCGGTT and AAA of strand 1
Regarding B2, the binding result in the data set with Smc5/6 holocomplex [4] is “binds”.
